Test: yeast display, Sf9 membrane polyspecificity reagent, FACS + sequencing; frameworks hold sequencing errors
Method in brief: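 Synthetic nanobody libraries on Saccharomyces cerevisiae BJ5465 were galactose-induced for 36–48 hours, stained 1 hour at 4 °C with 10% biotinylated, detergent-solubilized Sf9 membrane reagent and enriched on streptavidin microbeads. FACS then separated cells into low and high (top ~1%) gates by anti-HA (expression) and streptavidin (reagent binding) fluorescence. Genes were colony-PCR amplified, MiSeq 2 × 250 sequenced and CDR-length filtered. A clone's polyreactivity label is that of its gate of origin.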

Row | Sequence | polyreactivity (PSR sort gate)
1 | QVQLVESGGGVVQAGGSLRLSCAASGFIFNAYAMGSYRQAPGNERELVAAINTSGGRTNYADSVKGRFTISRDNAKNTVYLQMNSLKPEDTAVYYCAARNRFGGNYWGQGTQVTVSS | high polyreactivity
2 | QVQLVESGGGVVQAGGSLRLSCAASGFISKLYAMGWYRQAPGKEREMVAAISSSGTSTYYADSVKGRFTISRDHANNTVYLQMNSLKPEDTAVYYCNARWYVRAYEYDYWGQGTQVTVSS | low polyreactivity
3 | QVQLVESGGGVVQAGGSLRLSCAASGFTFGVYAMRGYRQAPGKERELVAAISSRGGSTYYADSVKGRFTISRDNPTNPVYLQMNSLKPEDTAVYYCAKRLGNTVGKDDYWGQGTQVTVSS | low polyreactivity
4 | QVQLVESGGGVVQAGGSLRLSCAASGFTYVYNAIGWYRQAPGKDMELVATISWRGGSTYADSVKGRFTISRDNAKNTVYLQINSRKPEDTAIYYCNAASRVSQAMDYWGQGTQVTVSS | high polyreactivity
5 | QVQLVESGGGVVQAGGSLRLSCAASGITFGWDAMGWYRQAPGKERELVASISSSGSTNYADSVKGRFTISRDNAKNTVYLQMNSLKPEDTAVYYCNKDYLLRHYYIYVIEGDYWGQGTQVTVSS | low polyreactivity
6 | QVQLVESGGGVVQAGGSLRLSCAASGITFRSYLMGWYRQAPGKEREFVAAITGSAGSTYYADSVKGRFTISRDNAKTTVYLQINSLKAEDTAVYYCAARVRYVNPKYYYLGQGTQVTVSS | high polyreactivity
7 | QVQLVESGGGVVQAGGSLRLSCAASGITIEANAMGLYRQAPGKERELVAAIDRSGGSKYYADSVKGRFTISRDNAKNTVYLQMNSLKPEDTAVYYCAADGRASVGGLGDDYWGQGTQVTVSS | low polyreactivity
8 | QVQLVESGGGVVQAGGSLRLSCAASGRIFDLYAMGWYRQAPGKERELVATISGSGGSTYYADSVKGRFTISRDNAKNTVYLQMNSLKPEDTAVYYCAAVSVSSWYDYWGQGTQVTVSS | low polyreactivity
9 | QVQLVESGGGVVQAGGSLRLSCAASGRIFGPNDMGWYRQAPGKGRELVAAITDSGDITYYADSVKGRFTISRDTAKNTVNVQMNCLKPEDTAVNYFAADHTYENEYRGQGTQVTVSS | low polyreactivity
10 | QVQLVESGGGVVQAGGSLRLSCAASGRIFYGNAMGWYRQAPGKERELVAAISSGTSTNYADSVKGRFTISRDNAKNTVYLQMTSLKPEDTAVYYCAAGSYSRYLYSLYFDFDYWGQGTQVTVSS | low polyreactivity
11 | QVQLVESGGGVVQAGGSLRLSCAASGSIFFLYAMGWSRQATGKEREFVAAITGTADSTYYADSVKGRFTISRDDAKNTVYLQMNSLKPEDTAVYYCATDYWSSVKLDDYWGQGTQVTVSS | low polyreactivity
12 | QVQLVESGGGVVQAGGSLRLSCAASGSTFGRYAMGWYRQAPGKERELVAAISWSGGSTYYADSVKGRFTISRDNAKNTVYLQMNSLKPEDTAVYYCNKYWRGSSSRDDYWGQGTQVTLSS | high polyreactivity
13 | QVQLVESGGGVVQAGGSLRLSCAASGSTFGYYTMGWNRQAPGKERELVAAISRSGCRTYYADSVKGRFTISRDNAMNAVYLHMTSLKPDYTAVYYCNADGTRYAGDDYWGQGSQVTVSS | high polyreactivity
14 | QVQLVESGGGVVQAGGSLRLSCAASGSTSYFNVIGWYRPAPGKERELVAAISWSGGSTYADSVKGRFTISRDNAKNTVYLQMNSLKREDTAVYYCNKDYGYVQLRFSGPGYYWGQGTQVTVSS | low polyreactivity
15 | QVQLVESGGGVVQAGGSLRLSCAASGTIFYENAMGWYRQAPGKEREFVATIDLIGDRTYYADSVKGRFTISRDNAKNTVYLQMNSLKPEDTAVYYCAAERVGVFFRYDYWGQGTQVTVSS | low polyreactivity
16 | QVQLVESGGGVVQAGGSLRLSCAATGSRYWDYPMGWYRQAPGKERELVAAISTSGGSTYYADSVKGRFTISRDNAKNTVYLQMNSLNPEDTAVYYCATRVRTGSVGNFNYWGQGTQVTVSS | high polyreactivity
17 | QVQLVESGGGVVQAGGSLRLSCAAYGSIFEANDMGWYRQAPGKERELVAAIDANTGSTYYADSVKGRFTISLDNAKNTVYLQMNSLKPEVTAVYYCNAQVYLQTAYDYWGQGTQVSVSS | low polyreactivity
18 | QVQLVESGGGVVQAGGSLRLSCASSGSIFGPYVMGWYRQAPGKERELVAAISKSGGSTYYADSVKGRFTISRDNAKNTVFLLMNSLKPEDTAVYYCATDYLGGGKRYYYWGQGTQVTVSS | high polyreactivity
19 | QVQLVESGGGVVQAGGSLRLTCAASGLTFNIYSLGWYRQAPGKEREFDATISSSGGGTYYADSVKGRFSISRDHAKNTVYVQLHSLPPEDTAVYYCARDSPDHVTYLHYHYDYWGQGTQVTVSS | low polyreactivity
20 | QVQLVESGGGYVQAGGSLRLSCAASGSIFRGYAMGWSRQAPGKEWELVATIDSSAGSTYYADSVKGRYTISRDNAKNTVYLQMNSLKPEDTAVFYCATDPYGYYYSGYDYWGQGTQVTVSW | low polyreactivity
21 | QVQLVESGGGYVQAGGSLRLSCAASGSTFKGYAMGLYRQAPGKEMELVAAITWIGGSTTYADSVKGRFTISCDNAKNTVYLQMNSLKPEDTAVYYCAADNFWYFLSATEDYWGQGTQVTVSS | low polyreactivity
22 | QVQLVESGGPLVKSRGSLRLICAASGRTYCEYSMGWYRQAPGKERELVADITNGSRTYYADSVKGRFTISRDNAKNTVYLQMNSLKPEDTSVYYCAADWWKEVDYWGQGTEVTVSS | low polyreactivity

Row | Sequence | polyreactivity (PSR sort gate)
23 | QVQLVESGGRKVQAGGSLRLSCAASGSTIWPYAMGCYRQAPAKERELVAAISNGGGTKYADSVKGRFTISRDNAKNTVYLQMNSLKPEHTAVYYCAKTLWTGRAWYDYWGQGTQVTVSS | high polyreactivity
24 | QVQLVESGGRLLQEGGSLRLSCAASGLIVTYYTMGWYRPAPGKERELVASIDSGGSTNYADSVQGRFTISRDNAKNTVYLQLNCLKPEDTAVEFCAADYDGWFYEMGYWGQGTQVTVSS | low polyreactivity
25 | QVQLVESGGRLVEAGGSLRISWAASGLIFGYNAMGWYRQAPGKERELVAAISGSGGRTYYADSVKGRFTISRDNAKNTVYLQMNSLKPEDTAVFYCAVADRRGLGYWGQGTQVTVSS | high polyreactivity
26 | QVQLVESGGRLVEAGGSLRLSCAASGSTISGNAMGWYRQAPGKERELVAEITSDDSTNYADSVKGRFTISRDNAKNSVYLQMNSLKPEDTAVYYCAADVTYPYYQDHSVDYFIGYAYWRQGTQVTVSS | low polyreactivity
27 | QVQLVESGGRLVQAGGILRLSCAASGRSFYFYAMGWYRKAPGKERELVAAITRGDDTNYADSVKGRFTISRDNAKNTVNLQMNSLKPEDTAVYYFGYATEYDYWGQGTQVTVSS | low polyreactivity
28 | QVQLVESGGRLVQAGGILRLSCAASGSTFSPYAKGRNRQAPGKERELVAGITSSGGDTYYADSVKGRFTISRDNAKNTVYLLMNSLKPEDTAVYYCAADWWVLGQLWFDYWGHGTQVTVSS | low polyreactivity
29 | QVQLVESGGRLVQAGGILRLSCAASGSTSHYYAMGWSRQAPGKERELVASITCSGGSTYYADSVKGRFTISRDNAKNTVYLQMNSLKPEATAVYYCNAQERRVRDYDYWGQGTQVTVSS | low polyreactivity
30 | QVQLVESGGRLVQAGGRHRLSGAASRNIFDRYALGWNLQAPGKESDLVAGITWSGGSTYYADSVKGRFTISRDNAKNTVYLHMNSLKPEDTAVYYCGQANYYWGQGTQVTVSS | low polyreactivity
31 | QVQLVESGGRLVQAGGSLLLSCAASGFTFDDYAMGRYRQAPGTERELVASITTSGASKYYADSVKGRFTISRDNAKNPVYLQMNSLKPEDTAVYYCAVDNDSYTSPRAGDDYWGQGTQVTVSS | low polyreactivity
32 | QVQLVESGGRLVQAGGSLRLICAASGLTIRSYAMGWYRQAPGKERELVAAISDSGDSTYYADSVKGRFTISRDNAKNTVYFQMNSLKPEDTAVYYCAVEYSYEYEFWGQGTQVTVSS | low polyreactivity
33 | QVQLVESGGRLVQAGGSLRLISAASGFTFRAYAMGWYRQAPGKERELVAAINISGGSTYYADSVKGRFTISRDNAKKTVYLKMNSLKPEDTAVYYCAADWPEDWYTEYGYWGQGTQVTVSS | low polyreactivity
34 | QVQLVESGGRLVQAGGSLRLLCAASGSTFRYYAMGWYRPAPGKERELLAAISRSGGRTYYADSVKGRFTMSRDNAKTTVYLQMKSLKPEDTAVYDCATRGDGSSWGDYDYWGQGTQVTVSS | high polyreactivity
35 | QVQLVESGGRLVQAGGSLRLRCAASGSTFMSNAMGWYRPAPGKERELVAAITGSGGNTYYADSVKGRFTISRDNAKNTVYLQMNSLKPEDTAVYYCAAVAPRSNYWRGYYYWGQGTQVTVSS | high polyreactivity
36 | QVQLVESGGRLVQAGGSLRLSCAASGFIFDDYDIGWYTQAPGKERELVDAISWSGGSTYYEDSLKGRFTISRDNAKNTVYLQMNSLKPEDTAVYYCNADYYRSRYDYWGQGTQVTVSS | high polyreactivity
37 | QVQLVESGGRLVQAGGSLRLSCAASGFIFKYYAMGWYRQAPGKEREFVAAITWSGSSTNYADSVKGRFTISRDNAKNTVYLQMNSLKPEDTAVYYCNADRKYYKYDYWGQGTQVTVSS | high polyreactivity
38 | QVQLVESGGRLVQAGGSLRLSCAASGFIFYQYAMGWYRQAPGKERELVAVISRTGSTSYADSVKGRFTISRDNAKNSVYLQLNSLKAEDTAGYYCAKKRALRYYGYDYWGQGTQVTVSS | high polyreactivity
39 | QVQLVESGGRLVQAGGSLRLSCAASGFTFGAYAMGWYRQAPGKERELVATIRYSGDSTYYADSVKGRFTISRDNAKNTVYLQMNSLKPEDTAVYYCAADVYGGIGYDYWGQGTQVTVSS | low polyreactivity
40 | QVQLVESGGRLVQAGGSLRLSCAASGFTFNRYAMGGYRHAPGKERELVARITRGGSTKYADSVKGRFTISRDNAKNTVYLQMNSLKPEDTAVYYCAADYGGFLGYDYWGQGTQVTVSS | high polyreactivity
41 | QVQLVESGGRLVQAGGSLRLSCAASGFTFPWYTMGWYRQPPGKEREFVAAITVSGGSTYYADSVKGRFTISRDNAKNSVYLQMNSLKPEDTAVYYCARDGRVVYDSRYDYWGQGTQVTVSS | low polyreactivity
42 | QVQLVESGGRLVQAGGSLRLSCAASGINFGYYAMGLYRQAPGKEMELVAAINKSGTSTYYADSVKGRFTISRDNAKNTVYLQMNSLKPEDTAVYYCAVDYARDKGYPYGYWGQGTQVTVSS | low polyreactivity
43 | QVQLVESGGRLVQAGGSLRLSCAASGIPFEYYAMGWYRQAPGKERELVAAIDTGGSTNYADSVKGRFTISRDNAKNTVYLQMNSLKPEDTAVYYCAADWSWWDGEDYHFEYDYWGQGTQVTVSS | low polyreactivity

Source: the nanobody polyreactivity screen of Harvey et al. (2022)
